According to patent publication US9518268B2, “Drought tolerant transgenic plants and method of making same” (PURDUE RESEARCH FOUNDATION, priority 2013, dated 2016):

Tested on: RD29B-LUC expression
Assay: ABA-independent induction of RD29B-LUC in triple mutant protoplasts
Type: cell-based, Arabidopsis
Conditions: abi1/hab1/abi2 protoplasts
Text: The basal RD29B-LUC expression level was elevated in protoplasts co-transfected with PP2CA-PYL13, HAI2-PYL13, or HAI3-PYL13, which is consistent with PYL13 inhibition of these PP2Cs in an ABA-independent manner in vivo (FIG. 4A). To exclude interference by endogenous PP2Cs in wild type protoplasts and to assess the ABA-independent selective inhibition of PP2Cs by PYL13, PYL13 was co-expressed with PP2CA, HAI1, HAI2, and HAI3 in abi1/hab1/abi2 triple mutant protoplasts, as shown in FIG. 4C. After transfection, protoplasts were incubated for 4.5 h under light in the absence of ABA. Error bars indicate s.e.m. (n=3).
Expression of RD29B-LUC in the absence of ABA was increased in the transfections of PYL9-K63Q/L89F or PYL11-K39Q/L66F together with SnRK2.6 and ABF2 to a considerable level. The ABA-independent RD29B-LUC expression is about 70% of that in the presence of 5 μM ABA in the transfection of PYL11-K39Q/L66F, while about 30˜60% in the transfection of PYL9-K63Q/L89F (FIG. 4). […] RD29B-LUC was used as the ABA-responsive reporter. ZmUBQ-GUS was used as the internal control. After transfection, protoplasts were incubated for 4.5 h under light in the absence of ABA (open bars) or in the presence of 5 μM ABA (closed bars). Error bars indicate s.e.m. (n=4).
Assays for transient expression in protoplasts were performed as described (Fujii et al., 2009). Leaf strips (0.5 mm) were cut from the middle part of second leaves using a razor blade (VWR SCIENTIFIC) and submerged in 15 mL of enzyme solution containing 20 mM MES, pH 5.7, 1.5% (w/v) cellulase R10 (YAKULT PHARMACEUTICAL INDUSTRY), 0.4% (w/v) macerozyme R10 (YAKULT PHARMACEUTICAL INDUSTRY), 0.4 M mannitol, 20 mM KCl, 10 mM CaCl2, 1 mM 2-mercaptoethanol, and 0.1% BSA. The leaves were vacuum infiltrated for 30 min and then incubated without shaking for 3 h in the dark at room temperature. The enzyme/protoplast solution was diluted with 15 mL of W5 solution (2 mM MES, pH 5.7, 154 mM NaCl, 125 mM CaCl2, and 5 mM KCl) and filtered with a 75-μm nylon mesh. Protoplasts were centrifuged at 100 g for 2 min in a 30-mL round-bottomed tube (SARSTEDT), resuspended in W5 solution, and rested for 30 min at room temperature.
Before transfection, protoplasts were changed into MMg solution (4 mM MES, pH 5.7, 0.4 M mannitol, and 15 mM MgCl2) to a final concentration of 2×10^5 cells per microliter. Protoplasts (100 μl) were gently and thoroughly mixed with the plasmid DNA mixture (less than 10 μl) and 110 μl of PEG solution (40% w/v PEG-4000, 0.2 M mannitol, and 100 mM CaCl2), incubated for 5 min, washed with 440 μl of W5 solution, and resuspended in 50 μl of WI solution (4 mM MES, pH 5.7, 0.5 M mannitol, and 20 mM KCl). After transfection, protoplasts were incubated in WI solution without ABA or with 5 μM ABA under light. The protoplasts were harvested after 4.5 h, frozen in liquid N2, and stored at −80° C.
The frozen protoplasts were resuspended in 50 μl of protoplast lysis buffer containing 2.5 mM Tris-phosphate, pH 7.8, 1 mM DTT, 2 mM DACTAA, 10% (v/v) glycerol, and 1% (v/v) Triton X-100. Protoplast lysates (20 μl) were mixed with 100 μl of LUC mix (PROMEGA), and LUC luminescence was measured with a plate reader (Wallac VICTOR2 plate reader).
Protoplast lysates (2 μl) were mixed with 10 μl of 4-methylumbelliferyl β-D-glucuronide (MUG) substrate mix (10 mM Tris-HCl, pH 8, 1 mM MUG [GOLD BIOTECHNOLOGY], and 2 mM MgCl2). After the mixture was kept for 30 min at 37° C., 100 μl of 0.2 M Na2CO3 was added, and GUS activity was measured using the plate reader with the excitation filter at 355 nm and the emission filter at 460 nm.
All the plasmids used in this assay were purified with the QIAGEN Plasmid Maxi Kit or the QIAGEN Plasmid Midi Kit. The quality of plasmid DNA is important for high transfection efficiency. RD29B::LUC (7 μg of plasmid per transfection) was used as the ABA-responsive reporter. ZmUBQ::GUS (2 μg of plasmid per transfection) was used as the internal control. […]

| Molecule | expression of RD29B-LUC in the absence of ABA (with PP2CA only, SnRK2.6 and ABF2 (control transfection)) | expression of RD29B-LUC in the absence of ABA (with HAI1, SnRK2.6 and ABF2) | expression of RD29B-LUC in the absence of ABA (with PP2CA, HAI2, or HAI3, SnRK2.6 and ABF2) |
| --- | --- | --- | --- |
| PYL2: Arabidopsis thaliana PYL family ABA receptor protein PYL2, AT2G26040 | an increase was not observed |  |  |
| PYL13: Arabidopsis thaliana PYR/PYL/RCAR family protein PYL13, SEQ ID NO: 1 (protein, listed as Arabidopsis thaliana) MESSKQKRCRSSVVETIEAPLPLVWSILRSFDKPQAYQRFVKSCTMRSGGGGGKGGEGKGSVRDVTLVSGFPADFSTERLEELDDESHVMVVSIIGGNHRLVNYKSKTKVVASPEDMAKKTVVVESYVVDVPEGTSEEDTIFFVDNIIRYNLTSLAKLTKKMMK |  | an increase was not observed | increased |
